According to article PMC4721865:

What was measured:
[1] = biological target: ASP1-GST fusion protein (aspartic protease ASP-1 of C. elegans) (C. elegans) (UniProt G5EEI4); assay: ELISA; plates coated with 0.5 ug ASP-1/well in 20 mM HEPES pH 8.0, blocked with PBST 3% BSA, increasing concentrations of biotinylated toxin; specific binding = total minus binding with 1000-fold molar excess of unlabeled Cry6Aa
[2] = biological target: ASP1-GST fusion protein (aspartic protease ASP-1 of C. elegans) (C. elegans) (UniProt G5EEI4); assay: ITC; 25 C, 20 mM HEPES pH 8.0; 21.16 uM Cry6Aa titrated into 2.20 uM ASP-1 in the cell, 20 injections of 10 uL

Substance	Kd [1] [nM]	Kd [2] [nM]
biotin-labeled crystal protein Cry6Aa (from UniProt Q45757 1-475) (natural protein)	146	–
crystal protein Cry6Aa (unlabeled) (from UniProt Q45757 1-475) (natural protein)	–	126
